What all share (test): purified protein
Substrate in series [1]: CC(=O)C(=O)O
In kind it is biochemical, Geobacillus stearothermophilus. The note with it: 0.2 mM NADH, 20 mM sodium phosphate pH 7.0, 50 °C, 0-50 mM pyruvate.

Substrate in series [2]: O=C[C@H](O)CO
To be noted: pyruvate and D-glyceraldehyde varied together (0.5-40 mM), one combined Km, 20 mM sodium phosphate pH 7.0, 50 °C.

Substrate in series [3]: CC(=O)C(=O)O
In kind it is biochemical, Thermoplasma acidophilum. To be noted: pyruvate and D-glyceraldehyde varied together (0.5-40 mM), one combined Km, 20 mM sodium phosphate pH 7.0, 50 °C.

B1: LDH (Geobacillus stearothermophilus) (protein)
chain: MKNNGGARVVVIGAGFVGASYVFALMNQGIADEIVLIDANESKAIGDAMDFNHGKVFAPKPVDIWHGDYDDCRDADLVVICAGANQKPGETRLDLVDKNIAIFRSIVESVMASGFQGLFLVATNPVDILTYATWKFSGLPHERVIGSGTILDTARFRFLLGEYFSVAPQNVHAYIIGEHGDTELPVWSQAYIGVMPIRKLVESKGEEAQKDLERIFVNVRDAAYQIIEKKGATYYGIAMGLARVTRAILHNENAILTVSAYLDGLYGERDVYIGVPAVINRNGIREVIEIELNDDEKNRFHHSAATLKSVLARAFTR
notes: synthetic gene, His-tagged, pETDuet-1, expressed in E. coli BL21 (DE3), Ni-NTA purified
On to B1, for which, in the series “purified protein [1]”, the Michaelis-Menten constant (Km) (commonly the concentration of substrate that gives half-maximal velocity) was 10.95 ± 1.67 mM; the Vmax (usually the top rate of the reaction or transport when substrate is in excess) was determined as 194 µmol/min/mg; the kcat (usually the maximal rate divided by the concentration of active sites) was found to be 117 s⁻¹; the specificity constant (kcat/Km) – broadly, the turnover number divided by the Michaelis constant – came out at 10600 M⁻¹ s⁻¹.

B2: KDGA (Thermoplasma acidophilum DSM 1728) (protein)
chain: MYKGIVTPMITPMGQNGEIDYRATEILIDNLADFGVDGLFPMGSTGLFPMFSTDEKKKFLGFVRDHSKKIEVYAGVGSSSTQESVELSKYTEDIGIKVRVLMPTYYIKPDEDWMYRHFSTVISAASNDLFIYNIPQLSGSWISESLIEKLTREFSNVKGIKDSSGDMRFFSRIIRHKNEKFDIFQGQDDLLFLSLSIGASGGVCGLSNISPYITNLYHEFSAGNLEKARKIQIDEVNPLMYAINEATFPAGYYYAFYKMNGIKGGYRAPMVEPTTDQKKKIDQELTKIPKKQ
notes: His-tagged, pProEX HTc, expressed in E. coli BL21-CodonPlus (DE3)-RIL, Ni-NTA purified
In the case of B2, in “purified protein [2]”, the Michaelis-Menten constant (Km) worked out at 8.07 ± 1.29 mM, the Vmax came to 17 µmol/min/mg, the catalytic constant (kcat) amounted to 10.5 s⁻¹ and the kcat/Km came out at 1300 M⁻¹ s⁻¹. In “purified protein [3]”, the Km was found to be 8.07 ± 1.29 mM, the Vmax was determined as 17 µmol/min/mg, the kcat worked out at 10.5 s⁻¹ and the kcat/Km stood at 1300 M⁻¹ s⁻¹.

These data come from PMC6901390, “Cell-Free Enzymatic Conversion of Spent Coffee Grounds Into the Platform Chemical Lactic Acid” (Frontiers in Bioengineering and Biotechnology, 2019).
